Test results taken from patent publication US20040166530A1 (BAYLOR COLLEGE OF MEDICINE, published 2004).

Columns and labels:
[1] = target: phosphorylated IκB peptide (residues 21-41, phosphorylated on Ser-32 and Ser-36); assay: HeLa lysate on IκB peptide beads, anti-Skp1 immunoblot (FIG. 8)
[2] = target: T1, Grr1/Skp1^F/Cdc53 complex (S. cerevisiae, UniProt P24814 1-1151; P52286 1-194; Q12018 1-815); assay: binding of 32P-labeled Cln kinase complexes to anti-Skp1^F immune complexes, autoradiography (FIG. 5A)
T1 construct: also called Cdc53/Skp1/Grr1 complex; Grr1/Skp1/Cdc53 complex; not shown: N-terminal His6-G10 (T7 gene 10) tag; N-terminal Flag tag; N-terminal Myc tag
T1 sequence (P24814 whole entry, chain 1 of 2): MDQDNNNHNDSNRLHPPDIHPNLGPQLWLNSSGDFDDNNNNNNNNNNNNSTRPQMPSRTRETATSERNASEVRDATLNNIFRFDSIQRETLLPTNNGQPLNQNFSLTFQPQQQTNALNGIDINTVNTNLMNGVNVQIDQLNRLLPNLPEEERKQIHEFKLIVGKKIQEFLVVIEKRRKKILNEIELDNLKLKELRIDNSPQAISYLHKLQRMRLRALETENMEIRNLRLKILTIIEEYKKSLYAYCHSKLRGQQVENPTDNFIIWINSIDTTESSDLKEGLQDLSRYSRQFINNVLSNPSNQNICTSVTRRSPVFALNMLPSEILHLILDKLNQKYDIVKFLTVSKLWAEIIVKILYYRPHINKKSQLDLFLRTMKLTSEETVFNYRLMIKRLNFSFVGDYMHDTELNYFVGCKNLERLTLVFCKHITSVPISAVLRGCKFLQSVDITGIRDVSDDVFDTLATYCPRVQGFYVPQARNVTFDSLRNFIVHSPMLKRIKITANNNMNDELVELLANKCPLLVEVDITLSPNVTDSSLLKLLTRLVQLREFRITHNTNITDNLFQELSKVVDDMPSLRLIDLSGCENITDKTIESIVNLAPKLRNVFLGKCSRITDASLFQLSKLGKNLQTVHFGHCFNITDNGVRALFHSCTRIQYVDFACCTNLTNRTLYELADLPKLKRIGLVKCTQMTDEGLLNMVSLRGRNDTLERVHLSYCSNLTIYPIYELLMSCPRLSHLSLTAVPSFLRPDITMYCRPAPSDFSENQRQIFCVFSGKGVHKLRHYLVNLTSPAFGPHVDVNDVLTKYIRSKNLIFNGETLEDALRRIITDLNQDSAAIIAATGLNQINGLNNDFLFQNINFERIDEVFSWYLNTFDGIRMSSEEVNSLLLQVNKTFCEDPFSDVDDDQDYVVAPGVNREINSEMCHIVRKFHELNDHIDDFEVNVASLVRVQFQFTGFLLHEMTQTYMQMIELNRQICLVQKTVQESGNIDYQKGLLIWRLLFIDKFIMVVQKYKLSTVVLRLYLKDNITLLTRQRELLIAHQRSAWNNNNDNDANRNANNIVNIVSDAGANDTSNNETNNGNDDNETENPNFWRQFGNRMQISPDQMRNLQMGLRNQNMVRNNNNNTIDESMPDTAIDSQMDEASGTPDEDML
T1 sequence (P52286 whole entry, chain 2 of 2): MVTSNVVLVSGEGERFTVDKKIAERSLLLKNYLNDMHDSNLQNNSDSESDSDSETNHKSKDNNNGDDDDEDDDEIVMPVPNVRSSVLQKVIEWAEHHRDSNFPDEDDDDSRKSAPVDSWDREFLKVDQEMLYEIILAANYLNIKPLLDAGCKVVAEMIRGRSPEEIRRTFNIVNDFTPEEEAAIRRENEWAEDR

[3] = target: Cdc4/Skp1^F complex (S. cerevisiae) (UniProt P52286); assay: as above
Chain of Cdc4/Skp1^F complex (S. cerevisiae) (P52286 whole entry, one chain of several): as the sequence (P52286 whole entry, chain 2 of 2) above

[4] = target: T1, Grr1/Skp1^F/Cdc53 complex; assay: binding of 32P-labeled Sic1 complexes to anti-Skp1^F immune complexes, autoradiography (FIG. 4B)
Description: These experiments were conducted as described above, with the exception being that Grr1 was substituted for Cdc4 (approximately 100 ng). Proteins were separated by SDS-PAGE, and blotted with anti-Skp1 anti-Myc to detect Grr1G10 and Cdc53^M, with anti-Skp1 antibodies.
In this Figure, lanes 2-5 contain anti-Skp1^F immune complexes derived from insect cells infected with the indicated baculovirus combinations were used for binding reactions with ³²P-labeled Sic1 complexes. Ten percent of the input Sic1 complex (lane 1) was included as a control. The presence of Cdc4, Skp1, Cdc53, and Grr1 was verified by immunoblotting.

[5] = target: Flag-Cdc4 (Cdc4^F) (S. cerevisiae) (UniProt P07834); assay: binding reaction with anti-Flag (Cdc4^F) immune complexes with increasing Skp1, immunoblot (FIG. 2D)
[6] = target: T2, Myc-tagged Cdc53 (Cdc53^M) (S. cerevisiae, UniProt Q12018 1-815); assay: anti-Cdc53^M immune complexes from insect cells, immunoblot (FIG. 2C)
T2 construct: Expressed from baculovirus in insect cells; not shown: N-terminal Myc tag
T2 sequence (looked up): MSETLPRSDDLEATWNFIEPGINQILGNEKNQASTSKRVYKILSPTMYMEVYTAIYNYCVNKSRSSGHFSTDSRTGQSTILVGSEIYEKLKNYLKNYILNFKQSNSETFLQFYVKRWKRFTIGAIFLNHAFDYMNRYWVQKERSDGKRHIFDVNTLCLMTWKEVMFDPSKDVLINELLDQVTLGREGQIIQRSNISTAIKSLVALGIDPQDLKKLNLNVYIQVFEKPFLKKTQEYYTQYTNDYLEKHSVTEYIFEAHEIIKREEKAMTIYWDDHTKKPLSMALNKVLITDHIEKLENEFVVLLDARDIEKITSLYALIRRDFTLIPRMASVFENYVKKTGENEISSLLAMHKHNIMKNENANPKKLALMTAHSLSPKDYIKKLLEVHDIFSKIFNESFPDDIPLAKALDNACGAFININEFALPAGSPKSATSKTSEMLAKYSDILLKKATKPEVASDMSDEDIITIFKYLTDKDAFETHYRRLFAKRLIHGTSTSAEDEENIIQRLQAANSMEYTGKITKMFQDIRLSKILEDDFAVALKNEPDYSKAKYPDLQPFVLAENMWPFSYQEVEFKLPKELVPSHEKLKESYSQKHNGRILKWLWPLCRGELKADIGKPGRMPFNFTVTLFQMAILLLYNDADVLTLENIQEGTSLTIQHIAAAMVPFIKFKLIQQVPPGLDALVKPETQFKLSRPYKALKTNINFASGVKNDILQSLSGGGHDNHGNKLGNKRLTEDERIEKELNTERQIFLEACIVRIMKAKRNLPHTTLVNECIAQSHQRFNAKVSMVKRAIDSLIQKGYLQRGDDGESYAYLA
Description: To examine the assembly of recombinant yeast proteins, 0.4 ml lysate were typically derived from 2×10⁶ cells. […] Immunopurification was performed by incubating the lysates at 4° C. for 2 hours with 4 μg of the anti-Myc or anti-G10 antibody and 8 μl of Protein A-Sepharose, or with 8 μl of immobilized anti-Flag antibodies (Kodak; See, Example 1). Immune complexes were washed three times with 1 ml of lysis butter prior to SDS-PAGE.
Associated proteins were then washed three times with 1 ml of lysis buffer prior to SDS-PAGE and immunoblotting, were performed as described above.
As shown in this Figure, phosphorylated Sic1 efficiently associates with Cdc53/Skp1/Cdc4 complexes, and this association is dependent upon the presence of Skp1 (See, FIG. 2C, lanes 6 and 8). Typically, 10-20% of the input phosphorylated Sic1 was bound at about 20 nM Sic1. […] Consistent with the results in FIG. 1, the level of Cdc4 found in immune complexes lacking Skp1 were >10-fold lower than that found in the presence of Skp1.

[7] = target: T2, Myc-tagged Cdc53 (Cdc53^M); assay: anti-Myc immunoprecipitation from co-infected insect cells, immunoblot (FIG. 1A)
From the text: Insect cells were co-infected with various combinations of baculoviruses expressing Myc-tagged Cdc53 (Cdc53^M), Cdc34, Cdc4, and Skp1. Anti-Myc immune complexes from lysates of these infected cells were immunoblotted to identify associated proteins (See, FIG. 1A). […] Thus, one function of Skp1 is to facilitate association of Cdc53 with Cdc4. […] Furthermore, it appeared that Cdc53 can simultaneously associate with both Cdc34 and Skp1, as the association of Gst-Skp1 with Cdc34 is enhanced in the presence of Cdc53^M (See, FIG. 1C).
For recombinant protein expression and assembly of complexes, 4×10⁵ insect cells (Hi5, Invitrogen) were infected with the indicated virus combinations for 40 hours. These combinations included baculoviruses expressing Myc-tagged Cdc53 (Cdc53^M), Cdc34, Cdc4, and Skp1. Cells were then harvested and disrupted in lysis buffer (50 mM Tris-HCl (pH 7.5), 150 mM NaCl, 0.5% Nonidet P40, 10 mM NaF, 10 mM β-glycerol phosphate, 1 mM PMSF, and 5 μg/ml each leupeptin, antipain, and aprotinin). For isolation of protein complexes, typically about 3 ml of lysis buffer was used per 0.5×10⁸ cells.
To examine the assembly of recombinant yeast proteins, 0.4 ml lysate were typically derived from 2×10⁶ cells. […]

Chain of phosphorylated IκB peptide (residues 21-41, phosphorylated on Ser-32 and Ser-36) (peptide, as listed by the source): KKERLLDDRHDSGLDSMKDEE

Skp1 (in HeLa cell lysates) (from UniProt P63208 2-163)
percent of the Skp1 in the extracts that can associate with IκB [1]: 1%

B1: phosphorylated Cln2HA (protein, S. cerevisiae, UniProt P20438 1-545, looked up, not shown: small tags and cut ends)
chain: MASAEPRPRMGLVINAKPDYYPIELSNAELLSHFEMLQEYHQEISTNVIAQSCKFKPNPKLIDQQPEMNPVETRSNIITFLFELSVVTRVTNGIFFHSVRLYDRYCSKRIVLRDQAKLVVATCLWLAAKTWGGCNHIINNVVIPTGGRFYGPNPRARIPRLSELVHYCGDGQVFDESMFLQMERHILDTLNWNIYEPMINDYVLNVDENCLMQYELYENQVTYDKQCSEKRQSQLSQDSDATVDERPYQNEEEEEEDLKLKIKLINLKKFLIDVSAWQYDLLRYELFEVSHGIFSIINQFTNQDHGPFLMTPMTSESKNGEILSTLMNGIVSIPNSLMEVYKTVNGVLPFINQVKEYHLDLQRKLQIASNLNISRKLTISTPSCSFENSNSTSIPSPASSSQSHTPMRNMSSLSDNSVFSRNMEQSSPITPSMYQFGQQQSNSICGSTVSVNSLVNTNNKQRIYEQITGPNSNNATNDYIDLLNLNESNKENQNPATAHYLNGGPPKTSFINHGMFPSPTGTINSGKSSSASSLISFGMGNTQVI
modifications: autophosphorylated in Cln2/Cdc28 complexes with ATP; sites not stated
percent of the input associated (% of the input) [2]: 40
percent of the input associated (% of the input) [3]: 6

B2: phosphorylated Cln1HA (protein, S. cerevisiae, UniProt P20437 1-546, looked up, not shown: small tags and cut ends)
chain: MNHSEVKTGLIVTAKQTYYPIELSNAELLTHYETIQEYHEEISQNVLVQSSKTKPDIKLIDQQPEMNPHQTREAIVTFLYQLSVMTRVSNGIFFHAVRFYDRYCSKRVVLKDQAKLVVGTCLWLAAKTWGGCNHIINNVSIPTGGRFYGPNPRARIPRLSELVHYCGGSDLFDESMFIQMERHILDTLNWDVYEPMINDYILNVDENCLIQYELYKNQLQNNNSNGKEWSCKRKSQSSDDSDATVEEHISSSPQSTGLDGDTTTMDEDEELNSKIKLINLKRFLIDLSCWQYNLLKFELYEICNGMFSIINKFTNQDQGPFLSMPIGNDINSNTQTQVFSIIINGIVNSPPSLVEVYKEQYGIVPFILQVKDYNLELQKKLQLASTIDLTRKIAVNSRYFDQNASSSSVSSPSTYSSGTNYTPMRNFSAQSDNSVFSTTNIDHSSPITPHMYTFNQFKNESACDSAISVSSLPNQTQNGNMPLSSNYQNMMLEERNKENRIPNSSSAEIPQRAKFMTTGIFQNTGELTNRASSISLSLRNHNSSQL
modifications: autophosphorylated in Cln1/Cdc28 complexes with ATP; sites not stated
percent of the input associated (% of the input) [2]: 40
percent of the input associated (% of the input) [3]: 6

B3: phosphorylated Sic1 (other, S. cerevisiae, UniProt P38634 1-284, looked up)
chain: MTPSTPPRSRGTRYLAQPSGNTSSSALMQGQKTPQKPSQNLVPVTPSTTKSFKNAPLLAPPNSNMGMTSPFNGLTSPQRSPFPKSSVKRTLFQFESHDNGTVREEQEPLGRVNRILFPTQQNVDIDAAEEEEEGEVLLPPSRPTSARQLHLSLERDEFDQTHRKKIIKDVPGTPSDKVITFELAKNWNNNSPKNDARSQESEDEEDIIINPVRVGKNPFASDELVTQEIRNERKRAMLRENPDIEDVITYVNKKGEVVEKRRLTDEEKRRFKPKALFQSRDQEH
modifications: phosphorylated in vitro by Gst-Cdc28HA/Cln1HA/Cks1 with ATP; sites not stated
notes: also called Cln1/Cdc28-phosphorylated Sic1; phosphorylated Sic1 complexes
binding result [4]: no binding
fold stimulation by Skp1 of the association of Sic1 with Cdc4 [5]: 5 fold

B4: Cdc4 (other, S. cerevisiae, UniProt P07834 1-779, looked up)
chain: MGSFPLAEFPLRDIPVPYSYRVSGGIASSGSVTALVTAAGTHRNSSTAKTVETEDGEEDIDEYQRKRAAGSGESTPERSDFKRVKHDNHKTLHPVNLQNTGAASVDNDGLHNLTDISNDAEKLLMSVDDGSAAPSTLSVNMGVASHNVAAPTTVNAATITGSDVSNNVNSATINNPMEEGALPLSPTASSPGTTTPLAKTTKTINNNNNIADLIESKDSIISPEYLSDEIFSAINNNLPHAYFKNLLFRLVANMDRSELSDLGTLIKDNLKRDLITSLPFEISLKIFNYLQFEDIINSLGVSQNWNKIIRKSTSLWKKLLISENFVSPKGFNSLNLKLSQKYPKLSQQDRLRLSFLENIFILKNWYNPKFVPQRTTLRGHMTSVITCLQFEDNYVITGADDKMIRVYDSINKKFLLQLSGHDGGVWALKYAHGGILVSGSTDRTVRVWDIKKGCCTHVFKGHNSTVRCLDIVEYKNIKYIVTGSRDNTLHVWKLPKESSVPDHGEEHDYPLVFHTPEENPYFVGVLRGHMASVRTVSGHGNIVVSGSYDNTLIVWDVAQMKCLYILSGHTDRIYSTIYDHERKRCISASMDTTIRIWDLENIWNNGECSYATNSASPCAKILGAMYTLQGHTALVGLLRLSDKFLVSAAADGSIRGWDANDYSRKFSYHHTNLSAITTFYVSDNILVSGSENQFNIYNLRSGKLVHANILKDADQIWSVNFKGKTLVAAVEKDGQSFLEILDFSKASKINYVSNPVNSSSSSLESISTSLGLTRTTIIP
notes: Untagged, expressed from baculovirus in insect cells
fold lower level of Cdc4 in immune complexes lacking Skp1 than in the presence of Skp1 [6]: > 10 fold

B5: Cdc34 (enzyme, S. cerevisiae, UniProt P14682 1-295, looked up)
chain: MSSRKSTASSLLLRQYRELTDPKKAIPSFHIELEDDSNIFTWNIGVMVLNEDSIYHGGFFKAQMRFPEDFPFSPPQFRFTPAIYHPNVYRDGRLCISILHQSGDPMTDEPDAETWSPVQTVESVLISIVSLLEDPNINSPANVDAAVDYRKNPEQYKQRVKMEVERSKQDIPKGFIMPTSESAYISQSKLDEPESNKDMADNFWYDSDLDDDENGSVILQDDDYDDGNNHIPFEDDDVYNYNDNDDDDERIEFEDDDDDDDDSIDNDSVMDRKQPHKAEDESEDVEDVERVSKKI
notes: Untagged baculovirus form in the assembly experiments; also called E2 Cdc34
binding result [7]: binds
